# Primed or numbered codes have the meaning given here. Side-chain parts run from the residue outwards. PEG4′ = not defined here; Mal = not defined here
# Target: recombinant human Cathepsin B (human, UniProt P07858 80-333)
# Test: cell-based or functional assay
binder,measurement,value
{DM1-Mal}-FKK([PEG4′-Mal-Cys-Ac])F-OH (reading uncertain; also: printed as DM1-Mal-Phe-Lys-Lys(PEG4-Mal-Cys-Ac)-Phe-OH) [Compound 5: DM1-Mal-Phe-Lys-Lys(PEG4-Mal-Cys-Ac)-Phe-OH],"Cat B-induced drug release, fold faster than the reference Cys-MC-Val-Cit-PABC-MMAF",20 times
